# Results reported in paper PMC4633494, “An antennal carboxylesterase from Drosophila melanogaster, esterase 6, is a candidate odorant-degrading enzyme toward food odorants” (Frontiers in Physiology, 2015).
# Experiments:
# Conditions in all cases: concentrated culture medium, enzyme titrated, GC-MS assay at pH 8.0, 25 mM Tris-HCl, 200 µM substrate, BSA, 5% ethanol
# [1] = substrate: CCCCCCCCOC(=O)CC; assay: competitive inhibition of 4-nitrophenyl acetate hydrolysis (Ki taken as Km); kcat from GC-MS substrate loss; type: biochemical, Drosophila melanogaster
# Description: (§1) competitive inhibition of 4-nitrophenyl acetate hydrolysis (Ki taken as Km); kcat from GC-MS substrate loss on EST-6 (EST-6^F), esterase 6
# [2] = substrate: CCCCCOC(C)=O; assay: as above; type: biochemical, Drosophila melanogaster
# Description: as §1
# [3] = substrate: CCCOC(=O)CCC; assay: cells, lysate or membranes
protein,measurement,setting,value
"EST-6 (EST-6^F), esterase 6 (Drosophila melanogaster) (protein, natural allele expressed behind its own signal peptide (secreted) with BacuVance baculovirus system (Genscript); no tag told) SDTDDPLLVQLPQGKLRGRDNGSYYSYESIPYAEPPTGDLRFEAPEPYKQKWSDIFDATKTPVACLQWDQFTPGANKLVGEEDCLTVSVYKPKNSKRNSFPVVAHIHGGAFMFGAAWQNGHENVMREGKFILVKISYRLGPLGFVSTGDRDLPGNYGLKDQRLALKWIKQNIASFGGEPQNVLLVGHSAGGASVHLQMLREDFGQLARAAFSFSGNALDPWVIQKGARGRAFELGRNVGCESAEDSTSLKKCLKSKPASELVTAVRKFLIFSYVPFAPFSPVLEPSDAPDAIITQDPRDVIKSGKFGQVPWAVSYVTEDGGYNAALLLKERKSGIVIDDLNERWLELAPYLLFYRDTKTKKDMDDYSRKIKQEYIGNQRFDIESYSELQRLFTDILFKNSTQESLDLHRKYGKSPAYAYVYDNPAEKGIAQVLANRTDYDFGTVHGDDYFLIFENFVRDVEMRPDEQIISRNFINMLADFASSDNGSLKYGECDFKDNVGSEKFQLLAIYIDGCQNRQHVEFP",Km,[1],3.16 mM
same,kcat,[1],4520 ± 1680 s⁻¹
same,Km,[2],2930 µM
same,kcat,[2],969 ± 215 s⁻¹
same,Km,[3],18.3 mM
same,kcat,[3],1670 s⁻¹
